Assays:
[1] = target: T1, yArgRS (yeast cytoplasmic arginyl-tRNA synthetase) (Saccharomyces cerevisiae, UniProt Q05506 1-607); assay: EMSA; 0.5 uM yArgRS, single tRNA, 10 mM Mg2+; 25 mM Tris-HCl pH 7.5, 75 mM KCl, 10 mM MgCl2, 25% glycerol; 15 min at room temperature (Fig 1 legend: on ice); native 6% PAGE at room temperature; details: protein: recombinant, tags: none (tag-free native recombinant, E. coli TB1, pTrc99B), label: 32P, tRNA cloverleaf
T1 sequence: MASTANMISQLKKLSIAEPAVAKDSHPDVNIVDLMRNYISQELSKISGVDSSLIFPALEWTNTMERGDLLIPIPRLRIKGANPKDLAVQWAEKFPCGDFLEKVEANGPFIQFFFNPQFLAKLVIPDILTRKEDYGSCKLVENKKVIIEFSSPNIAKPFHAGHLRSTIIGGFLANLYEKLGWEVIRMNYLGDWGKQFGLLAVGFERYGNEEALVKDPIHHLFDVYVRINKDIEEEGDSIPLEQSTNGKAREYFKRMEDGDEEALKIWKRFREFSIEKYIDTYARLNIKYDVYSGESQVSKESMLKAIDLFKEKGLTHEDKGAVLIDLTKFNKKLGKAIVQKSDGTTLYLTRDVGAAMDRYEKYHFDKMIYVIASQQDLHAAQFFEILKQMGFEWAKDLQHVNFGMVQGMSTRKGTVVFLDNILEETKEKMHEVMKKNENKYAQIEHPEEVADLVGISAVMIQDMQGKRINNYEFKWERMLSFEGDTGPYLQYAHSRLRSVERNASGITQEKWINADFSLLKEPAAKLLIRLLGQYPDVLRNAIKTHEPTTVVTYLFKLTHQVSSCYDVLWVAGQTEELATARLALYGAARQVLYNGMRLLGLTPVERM

[2] = target: T1, yArgRS (yeast cytoplasmic arginyl-tRNA …); assay: EMSA + tRNA microarray (MIST); total tRNA competition, 10 mM Mg2+; strong affinity; 25 mM Tris-HCl pH 7.5, 75 mM KCl, 10 mM MgCl2, 25% glycerol; 15 min at room temperature (Fig 1 legend: on ice); native 6% PAGE at room temperature; details: protein: recombinant; tags: none (tag-free native recombinant, E. coli TB1, pTrc99B); label: 5'-32P; tRNA cloverleaf, long variable loop (class 2)
[3] = target: T1, yArgRS (yeast cytoplasmic arginyl-tRNA …); assay: EMSA + tRNA microarray (MIST); total tRNA competition, 10 mM Mg2+; highest among tRNA Arg; 25 mM Tris-HCl pH 7.5, 75 mM KCl, 10 mM MgCl2, 25% glycerol; 15 min at room temperature (Fig 1 legend: on ice); native 6% PAGE at room temperature; details: protein: recombinant; tags: none (tag-free native recombinant, E. coli TB1, pTrc99B); label: 5'-32P; tRNA cloverleaf
[4] = target: T1, yArgRS (yeast cytoplasmic arginyl-tRNA …); assay: EMSA + tRNA microarray (MIST); 0.8 uM yArgRS, total tRNA competition, 10 mM Mg2+; 25 mM Tris-HCl pH 7.5, 75 mM KCl, 10 mM MgCl2, 25% glycerol; 15 min at room temperature (Fig 1 legend: on ice); native 6% PAGE at room temperature; details: protein: recombinant, tags: none (tag-free native recombinant, E. coli TB1, pTrc99B), label: 5'-32P, tRNA cloverleaf
[5] = target: T1, yArgRS (yeast cytoplasmic arginyl-tRNA …); assay: EMSA + tRNA microarray (MIST); total tRNA competition, 10 mM Mg2+; 25 mM Tris-HCl pH 7.5, 75 mM KCl, 10 mM MgCl2, 25% glycerol; 15 min at room temperature (Fig 1 legend: on ice); native 6% PAGE at room temperature; details: protein: recombinant; tags: none (tag-free native recombinant, E. coli TB1, pTrc99B); label: 5'-32P; tRNA cloverleaf

B1: tRNA Leu (GAG) transcript (structured_RNA)
RNA: GGUACUCUGGCCGAGUGGUCUAAGGCGUCAGGUCGAGGUCCUGAUCUCUUCGGAGGCGCGGGUUCAAACCCCGCGGGUAUCA
modifications: none (unmodified transcript)
**Q.** Which binding signal ([1]; long variable loop (class 2)) does the source give for B1 here?
**A.** Its binding signal is greater than 60 % complexed.

B2: tRNA Asp (GUC) transcript (structured_RNA)
RNA: UCCGUGAUAGUUUAAUGGUCAGAAUGGGCGCUUGUCGCGUGCCAGAUCGGGGUUCAAUUCCCCGUCGCGGAG
modifications: none (unmodified transcript)
**Q.** How did the binding signal [1] turn out when B2 was run?
**A.** Its binding signal is 35 % complexed.

B3: native tRNA Leu (UAA) (structured_RNA)
RNA: GGAGGGUUGGCCGAGUGGUCUAAGGCGGCAGACUUAAGAUCUGUUGGACGGUUGUCCGCGCGAGUUCGAACCUCGCAUCCUUCA
modifications: native post-transcriptional modifications (not specified)
**Q.** Does B3 bind [2]?
**A.** Result: binds

B4: native tRNA Arg (UCU) (structured_RNA)
RNA: GCUCGCGUGGCGUAAUGGCAACGCGUCUGACUUCUAAUCAGAAGAUUAUGGGUUCGACCCCCAUCGUGAGUG
modifications: native post-transcriptional modifications (not specified)
**Q.** Does B4 bind [3]?
**A.** Result: binds

B5: tRNA Pro (AGG) transcript (structured_RNA)
RNA: GGGCGUGUGGUCUAGAGGUAUGAUUCUCGCUUAGGGUGCGGGAGGUCCCGGGUUCGAGUCCCGGCUCGCCCC
modifications: none (unmodified transcript)
**Q.** B5 was tested. Which binding signal [1] did it give?
**A.** The binding signal was 19 % complexed.

B6: native tRNA Leu (GAG) (structured_RNA)
RNA: GGUACUCUGGCCGAGUGGUCUAAGGCGUCAGGUCGAGGUCCUGAUCUCUUCGGAGGCGCGGGUUCAAACCCCGCGGGUAUCA
modifications: native post-transcriptional modifications (not specified)
**Q.** For B6, which binding signal ([4]; long variable loop (class 2)) is on record?
**A.** Its binding signal is greater than 3 fold enrichment vs input.

B7: native tRNA Ser (AGA) (structured_RNA)
RNA: GGCAACUUGGCCGAGUGGUUAAGGCGAAAGAUUAGAAAUCUUUUGGGCUUUGCCCGCGCAGGUUCGAGUCCUGCAGUUGUCG
modifications: native post-transcriptional modifications (not specified)
**Q.** B7 was tested. Which binding signal ([4]; long variable loop (class 2)) did it give?
**A.** Its binding signal is greater than 3 fold enrichment vs input.

B8: native tRNA Arg (CCU) (structured_RNA)
RNA: GUUCCGUUGGCGUAAUGGUAACGCGUCUCCCUCCUAAGGAGAAGACUGCGGGUUCGAGUCCCGUACGGAACG
modifications: native post-transcriptional modifications (not specified)
**Q.** With B8 as the binder, how does the binding signal [4] read?
**A.** Its binding signal is less than 0.3 fold enrichment vs input.

B9: native tRNA Gly (TCC) (structured_RNA)
RNA: GGGCGGUUAGUGUAGUGGUUAUCAUCCCACCCUUCCAAGGUGGGGACACGGGUUCGAUUCUCGUACCGCUCA
modifications: native post-transcriptional modifications (not specified)
**Q.** For B9, which binding signal [4] is on record?
**A.** Its binding signal is less than 0.3 fold enrichment vs input.

B10: native tRNA Ile (GAT) (structured_RNA)
RNA: GAAACUAUAAUUCAAUUGGUUAGAAUAGUAUUUUGAUAAGGUACAAAUAUAGGUUCAAUCCCUGUUAGUUUCA
modifications: native post-transcriptional modifications (not specified)
**Q.** With B10 as the binder, how does the binding signal [4] read?
**A.** The binding signal was less than 0.3 fold enrichment vs input.

B11: native tRNA Pro (AGG) (structured_RNA)
RNA: GGGCGUGUGGUCUAGAGGUAUGAUUCUCGCUUAGGGUGCGGGAGGUCCCGGGUUCGAGUCCCGGCUCGCCCC
modifications: native post-transcriptional modifications (not specified)
**Q.** For B11, which binding signal [4] is on record?
**A.** The binding signal was less than 0.3 fold enrichment vs input.

B12: native tRNA Gly (GCC) (structured_RNA)
RNA: GCGCAAGUGGUUUAGUGGUAAAAUCCAACGUUGCCAUCGUUGGGCCCCCGGUUCGAUUCCGGGCUUGCGCA
modifications: native post-transcriptional modifications (not specified)
**Q.** With B12 as the binder, how does the binding signal [5] read?
**A.** Its binding signal is 4.5 fold lower apparent affinity than tRNA Leu (GAG).

Reference: article PMC4465971, “MIST, a Novel Approach to Reveal Hidden Substrate Specificity in Aminoacyl-tRNA Synthetases”
